Assay results as given in the supplement of paper PMC9112550, “Optimization of the antimicrobial peptide Bac7 by deep mutational scanning” (BMC Biology, 2022).

The sequences below were run on Escherichia coli TOP10 (assay: shrunken log2 fold change of peptide-encoding DNA abundance (4.5 h post-induction vs induction); higher = less antimicrobial activity (less host growth inhibition)). Details: time post-induction: 4.5 h; library: site-saturation at positions 5, 18, 19, 20.
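Also: peptides expressed intracellularly from a pBAD plasmid library in pooled LB shake-flask culture, induced with 0.3% L-arabinose, DNA abundance read by NGS, three biological replicates, DESeq2 with apeglm shrinkage.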

| Sequence | shrunken log2 fold change |
| --- | --- |
| RRIRERPPRLPRPRPRPVTNPRP | -0.0383 |
| RRIRERPPRLPRPRPRPVVDPRP | 0.0306 |
| RRIRERPPRLPRPRPRPVVVPRP | -0.112 |
| RRIRERPPRLPRPRPRPVWFPRP | -0.0467 |
| RRIRERPPRLPRPRPRPVYDPRP | -0.0514 |
| RRIRERPPRLPRPRPRPVYFPRP | -0.207 |
| RRIRERPPRLPRPRPRPWACPRP | 0.0618 |
| RRIRERPPRLPRPRPRPWCPPRP | -0.758 |
| RRIRERPPRLPRPRPRPWCRPRP | -0.126 |
| RRIRERPPRLPRPRPRPWDLPRP | -0.164 |
| RRIRERPPRLPRPRPRPWDWPRP | 0.0223 |
| RRIRERPPRLPRPRPRPWEDPRP | -0.0727 |
| RRIRERPPRLPRPRPRPWEPPRP | 0.073 |
| RRIRERPPRLPRPRPRPWGFPRP | 0.0221 |
| RRIRERPPRLPRPRPRPWGIPRP | -0.234 |
| RRIRERPPRLPRPRPRPWGKPRP | -0.042 |
| RRIRERPPRLPRPRPRPWISPRP | 0.0119 |
| RRIRERPPRLPRPRPRPWITPRP | -0.00674 |
| RRIRERPPRLPRPRPRPWLGPRP | -0.247 |
| RRIRERPPRLPRPRPRPWLSPRP | 0.0694 |
| RRIRERPPRLPRPRPRPWRIPRP | -0.0301 |
| RRIRERPPRLPRPRPRPWRLPRP | -0.00145 |
| RRIRERPPRLPRPRPRPWRNPRP | 0.0891 |
| RRIRERPPRLPRPRPRPWTAPRP | -0.478 |
| RRIRERPPRLPRPRPRPWTTPRP | -0.0139 |

| Sequence | shrunken log2 fold change |
| --- | --- |
| RRIRERPPRLPRPRPRPWVHPRP | -0.0432 |
| RRIRERPPRLPRPRPRPWWGPRP | -0.081 |
| RRIRERPPRLPRPRPRPWWQPRP | -0.0206 |
| RRIRERPPRLPRPRPRPYANPRP | 0.0234 |
| RRIRERPPRLPRPRPRPYCSPRP | -0.57 |
| RRIRERPPRLPRPRPRPYEYPRP | -0.387 |
| RRIRERPPRLPRPRPRPYGNPRP | -0.0871 |
| RRIRERPPRLPRPRPRPYGRPRP | -0.264 |
| RRIRERPPRLPRPRPRPYHLPRP | -0.0102 |
| RRIRERPPRLPRPRPRPYHNPRP | -1.33 |
| RRIRERPPRLPRPRPRPYKRPRP | -0.905 |
| RRIRERPPRLPRPRPRPYKTPRP | -0.00814 |
| RRIRERPPRLPRPRPRPYLPPRP | -0.392 |
| RRIRERPPRLPRPRPRPYLTPRP | -0.424 |
| RRIRERPPRLPRPRPRPYNKPRP | -1.11 |
| RRIRERPPRLPRPRPRPYPLPRP | -0.192 |
| RRIRERPPRLPRPRPRPYQNPRP | -0.0789 |
| RRIRERPPRLPRPRPRPYRKPRP | -0.264 |
| RRIRERPPRLPRPRPRPYRQPRP | -0.264 |
| RRIRERPPRLPRPRPRPYRRPRP | -0.0227 |
| RRIRERPPRLPRPRPRPYSMPRP | -1.48 |
| RRIRERPPRLPRPRPRPYTDPRP | -0.956 |
| RRIRERPPRLPRPRPRPYTNPRP | -0.172 |
| RRIRERPPRLPRPRPRPYWDPRP | -0.111 |
| RRIRERPPRLPRPRPRPYYIPRP | -0.262 |

| Sequence | shrunken log2 fold change |
| --- | --- |
| RRIRFRPPRLPRPRPRPAACPRP | 0.0906 |
| RRIRFRPPRLPRPRPRPAAVPRP | 0.169 |
| RRIRFRPPRLPRPRPRPACWPRP | 0.471 |
| RRIRFRPPRLPRPRPRPADHPRP | 0.00851 |
| RRIRFRPPRLPRPRPRPADRPRP | -0.0752 |
| RRIRFRPPRLPRPRPRPAEVPRP | -0.127 |
| RRIRFRPPRLPRPRPRPAFLPRP | -0.17 |
| RRIRFRPPRLPRPRPRPAFMPRP | -0.164 |
| RRIRFRPPRLPRPRPRPAFNPRP | -0.367 |
| RRIRFRPPRLPRPRPRPAGKPRP | 0.279 |
| RRIRFRPPRLPRPRPRPAHMPRP | 0.129 |
| RRIRFRPPRLPRPRPRPAITPRP | -0.136 |
| RRIRFRPPRLPRPRPRPALKPRP | -0.0754 |
| RRIRFRPPRLPRPRPRPALWPRP | 0.625 |
| RRIRFRPPRLPRPRPRPAMHPRP | 0.234 |
| RRIRFRPPRLPRPRPRPAMPPRP | 0.0356 |
| RRIRFRPPRLPRPRPRPANDPRP | 0.0325 |
| RRIRFRPPRLPRPRPRPANEPRP | 0.0451 |
| RRIRFRPPRLPRPRPRPAQCPRP | 0.0148 |
| RRIRFRPPRLPRPRPRPAQYPRP | -0.574 |
| RRIRFRPPRLPRPRPRPARSPRP | 0.336 |
| RRIRFRPPRLPRPRPRPASFPRP | 0.279 |
| RRIRFRPPRLPRPRPRPASIPRP | -0.231 |
| RRIRFRPPRLPRPRPRPATDPRP | -0.0766 |
| RRIRFRPPRLPRPRPRPATHPRP | 0.167 |

| Sequence | shrunken log2 fold change |
| --- | --- |
| RRIRFRPPRLPRPRPRPATMPRP | -0.0804 |
| RRIRFRPPRLPRPRPRPAVDPRP | 0.43 |
| RRIRFRPPRLPRPRPRPAVLPRP | 0.107 |
| RRIRFRPPRLPRPRPRPAWQPRP | 2.26 |
| RRIRFRPPRLPRPRPRPAWWPRP | 0.273 |
| RRIRFRPPRLPRPRPRPAYYPRP | -0.227 |
| RRIRFRPPRLPRPRPRPCAVPRP | -0.46 |
| RRIRFRPPRLPRPRPRPCCLPRP | -0.725 |
| RRIRFRPPRLPRPRPRPCCNPRP | -0.0548 |
| RRIRFRPPRLPRPRPRPCDWPRP | -0.0151 |
| RRIRFRPPRLPRPRPRPCFTPRP | -0.237 |
| RRIRFRPPRLPRPRPRPCIWPRP | 0.25 |
| RRIRFRPPRLPRPRPRPCKCPRP | -0.317 |
| RRIRFRPPRLPRPRPRPCKIPRP | -0.0538 |
| RRIRFRPPRLPRPRPRPCKSPRP | -0.0582 |
| RRIRFRPPRLPRPRPRPCLQPRP | 0.0975 |
| RRIRFRPPRLPRPRPRPCMEPRP | -0.105 |
| RRIRFRPPRLPRPRPRPCMKPRP | 0.068 |
| RRIRFRPPRLPRPRPRPCPNPRP | 0.044 |
| RRIRFRPPRLPRPRPRPCPWPRP | -0.0658 |
| RRIRFRPPRLPRPRPRPCQNPRP | 0.0482 |
| RRIRFRPPRLPRPRPRPCQVPRP | 0.084 |
| RRIRFRPPRLPRPRPRPCRSPRP | 0.974 |
| RRIRFRPPRLPRPRPRPCRTPRP | 0.048 |
| RRIRFRPPRLPRPRPRPCSEPRP | 0.0135 |

| Sequence | shrunken log2 fold change |
| --- | --- |
| RRIRFRPPRLPRPRPRPCVAPRP | -0.201 |
| RRIRFRPPRLPRPRPRPCVPPRP | -0.835 |
| RRIRFRPPRLPRPRPRPCWQPRP | 3.76 |
| RRIRFRPPRLPRPRPRPCYDPRP | -0.0301 |
| RRIRFRPPRLPRPRPRPDASPRP | 0.146 |
| RRIRFRPPRLPRPRPRPDCAPRP | 0.0274 |
| RRIRFRPPRLPRPRPRPDCYPRP | -0.329 |
| RRIRFRPPRLPRPRPRPDDCPRP | 0.014 |
| RRIRFRPPRLPRPRPRPDDIPRP | -0.0253 |
| RRIRFRPPRLPRPRPRPDEDPRP | 0.181 |
| RRIRFRPPRLPRPRPRPDEFPRP | -0.267 |
| RRIRFRPPRLPRPRPRPDFDPRP | -0.15 |
| RRIRFRPPRLPRPRPRPDHDPRP | -0.217 |
| RRIRFRPPRLPRPRPRPDIEPRP | 0.0974 |
| RRIRFRPPRLPRPRPRPDIHPRP | -0.268 |
| RRIRFRPPRLPRPRPRPDILPRP | -0.119 |
| RRIRFRPPRLPRPRPRPDKEPRP | -0.0026 |
| RRIRFRPPRLPRPRPRPDLGPRP | 0.106 |
| RRIRFRPPRLPRPRPRPDMGPRP | -0.176 |
| RRIRFRPPRLPRPRPRPDMHPRP | 0.191 |
| RRIRFRPPRLPRPRPRPDMPPRP | -0.016 |
| RRIRFRPPRLPRPRPRPDRSPRP | 0.0602 |
| RRIRFRPPRLPRPRPRPDSHPRP | -0.495 |
| RRIRFRPPRLPRPRPRPDSLPRP | -0.204 |
| RRIRFRPPRLPRPRPRPDTQPRP | 0.0363 |

| Sequence | shrunken log2 fold change |
| --- | --- |
| RRIRFRPPRLPRPRPRPDVPPRP | -0.356 |
| RRIRFRPPRLPRPRPRPDWAPRP | 0.0526 |
| RRIRFRPPRLPRPRPRPDWQPRP | 0.0911 |
| RRIRFRPPRLPRPRPRPEACPRP | -0.0833 |
| RRIRFRPPRLPRPRPRPEAVPRP | 0.323 |
| RRIRFRPPRLPRPRPRPECTPRP | 0.0551 |
| RRIRFRPPRLPRPRPRPEFAPRP | -0.175 |
| RRIRFRPPRLPRPRPRPEFIPRP | -0.523 |
| RRIRFRPPRLPRPRPRPEFWPRP | 0.264 |
| RRIRFRPPRLPRPRPRPEFYPRP | 0.0551 |
| RRIRFRPPRLPRPRPRPEGKPRP | 0.143 |
| RRIRFRPPRLPRPRPRPEGLPRP | -0.0574 |
| RRIRFRPPRLPRPRPRPEHHPRP | -0.306 |
| RRIRFRPPRLPRPRPRPEHKPRP | -0.0193 |
| RRIRFRPPRLPRPRPRPEHRPRP | 0.105 |
| RRIRFRPPRLPRPRPRPEIFPRP | -0.139 |
| RRIRFRPPRLPRPRPRPEILPRP | -0.0488 |
| RRIRFRPPRLPRPRPRPEKRPRP | -0.0774 |
| RRIRFRPPRLPRPRPRPEMCPRP | -0.0817 |
| RRIRFRPPRLPRPRPRPEMKPRP | 0.0843 |
| RRIRFRPPRLPRPRPRPEMMPRP | 0.00382 |
| RRIRFRPPRLPRPRPRPENNPRP | -0.285 |
| RRIRFRPPRLPRPRPRPEPIPRP | 0.291 |
| RRIRFRPPRLPRPRPRPEQPPRP | 0.0505 |
| RRIRFRPPRLPRPRPRPERYPRP | 0.0915 |
